# Measured values as given in publication PMC11947619, “Molecular mechanism of Mad2 conformational conversion promoted by the Mad2‐interaction motif of Cdc20” (Protein Science : A Publication of the Protein Society, 2025).
# B1: Mad2^LL: loop‐less Mad2: residues 109–117 (…) replaced with GSG (protein)
# chain: MALQLSREQGITLRGSAEIVAEFFSFGINSILYQRGIYPSETFTRVQKYGLTLLVTTDLELIKYLNNVVEQLKDWLYKCSVQKLVVVISNIESGEVLERWQFDIECDKGSGEKSQKAIQDEIRSVIRQITATVTFLPLLEVSCSFDLLIYTDKDLVVPEKWEESGPQFITNSEEVRLRSFTTTIHKVNSMVAYKIPVND
# modifications: left off: His6, N-terminal, state not stated | DoubleStrep, N-terminal, state not stated
# notes: loop‐less Mad2: residues 109–117 (…) replaced with GSG
# How the values were obtained:
# O‐Mad2 = settings: in vitro, ref Lad et al., [2009], Simonetta et al.; cited from earlier work
# Source text: Juxtaposing the accessible Cdc20^MIM adjacent to O‐Mad2 by the MCC‐assembly scaffold involves the dimerization of an O‐Mad2 molecule with Mad1‐bound C‐Mad2 (Chen et al., [2023]; Fischer et al., [2022]; Lara‐Gonzalez et al., [2021]; Piano et al., [2021]).
# [1] = Spontaneous O-Mad2 to C-Mad2 conversion / stability of the open state; assay type: physicochemical; settings: NMR backbone assignment samples
# Protocol: FIGURE 2 NMR fingerprinting of Mad2. (a) Structural orientations of Trp75 (on the αB helix) and Trp167 (on the “safety‐belt”) in Mad2 produce distinct indole NH resonances. […] NMR spectra for O‐Mad2^R133A and “empty” C‐Mad2^L13A/R133A and C‐Mad2^R133A:Cdc20^MIM‐111‐138 are from Fischer et al. ([2022]) (c) Mad2 conversion rates vary with different MIM peptides. Conversion was traced over 24 h at 25°C using the Trp75 and Trp167 side‐chain resonances as reporters. MIM peptides were added at two‐fold molar excess to Mad2 (100 μM). Each spectrum required 12 min of acquisition time, therefore the 15 min time‐points represent the earliest spectra in the time‐resolved series. The schematics show the conformation of Mad2 as indicated by the tryptophan side‐chain resonances. A black tick marks when conversion is considered complete. NMR data for O‐Mad2^R133A with and without Cdc20^MIM‐111‐138 shown are from Fischer et al. ([2022]). In the case of full‐length Cdc20, the MIM sequence is sequestered by an auto‐inhibitory intramolecular interaction within Cdc20 itself, which prevents it from being readily accessible for binding to C‐Mad2 (Piano et al., [2021]). Conversely, isolated MIM peptides lack this auto‐inhibitory mechanism, allowing them to bind directly to C‐Mad2 without obstruction. […]
molecule,measurement,setting,value
C‐Mad2: Mad2 in the closed active state,enhancement of O-Mad2 to C-Mad2 conversion rate by dimerization with C-Mad2,O‐Mad2,3 to 4 fold
B1,limited stability (slow O-Mad2 to C-Mad2 conversion),[1],< 3 days
